Experimental data: US20210171652A1 (University of Pennsylvania, published 2021)

B1: linear peptide corresponding to the 6th extracellular loop of human RhD (peptide, UniProt Q02161 346-360, looked up)
peptide: LLVLDTVGAGNGMIG
notes: domain: 6th extracellular loop; Negative control peptide; also called RhD peptide (negative control)
B2: aWrb scFv (anti-Band3/GPA), clone KP2-23 (scFv)
scFv: EVQLLESGPGLVKPSETLSLTCTVSGSSLSSAYGWNWIRQPPGKGLEWIGSIGGSRDNTNYNPSLKRRVTISKDTSKNQFSLKLKSVTAADTAVYYCAQRGAYGYSYFDYWGQGVLVAVSSGGGGSGGGGSGGGGSAAELTLTQSPATLSLSPGETATLSCRASQTVGRNLAWYQQRPGQAPNLLVHSAYFRATGIPDRFSGSGSGTDFTLTISSLEPEDAGVYHCQQYNDLLPLTFGGGTKVEIK
modifications: radio-iodinated (125I) or amine-labelled with AlexaFluor 488/647 in the binding assays; sites not stated
notes: scFv produced as H2N-VH-(GGGGS)3-VL-FLAGx3-COOH in E. coli periplasm; also called anti-Wrb scFv; KP2-23 scFv; not shown: C-terminal FLAGx3 tag

How the values were obtained:
[1] = target: KP3-17 (anti-Rh17), as used in Example 8; experiment: peptide competition, flow cytometry on human erythrocytes; RhD loop peptide as negative control
Source text: Flow cytometry was used to assess the binding of anti-Rh17 to human erythrocytes in the presence and absence of linear peptides corresponding to the amino acid sequence 6th extracellular loop of human RhD (negative control) and human RhCE. […] (* denotes p<0.05 by 1-way ANOVA with Tukey's post-hoc test).
Rh17 recognizes an epitope present in the 6th extracellular loop of human RhCE. Flow cytometry was used to assess the binding of Rh17 to human erythrocytes in the presence and absence of linear peptides corresponding to the amino acid sequence 6th extracellular loop of human RhD (negative control) and human RhCE (FIG. 26).

[2] = target: T1, Band 3 / glycophorin A (Wright b, Wrb epitope) on human red blood cells (human, UniProt P02724 20-150); experiment: dissociation of 125I-labelled protein from saturated human RBCs
T1 construct: whole, on cells; also called Band3/GPA; AE1
T1 sequence 1: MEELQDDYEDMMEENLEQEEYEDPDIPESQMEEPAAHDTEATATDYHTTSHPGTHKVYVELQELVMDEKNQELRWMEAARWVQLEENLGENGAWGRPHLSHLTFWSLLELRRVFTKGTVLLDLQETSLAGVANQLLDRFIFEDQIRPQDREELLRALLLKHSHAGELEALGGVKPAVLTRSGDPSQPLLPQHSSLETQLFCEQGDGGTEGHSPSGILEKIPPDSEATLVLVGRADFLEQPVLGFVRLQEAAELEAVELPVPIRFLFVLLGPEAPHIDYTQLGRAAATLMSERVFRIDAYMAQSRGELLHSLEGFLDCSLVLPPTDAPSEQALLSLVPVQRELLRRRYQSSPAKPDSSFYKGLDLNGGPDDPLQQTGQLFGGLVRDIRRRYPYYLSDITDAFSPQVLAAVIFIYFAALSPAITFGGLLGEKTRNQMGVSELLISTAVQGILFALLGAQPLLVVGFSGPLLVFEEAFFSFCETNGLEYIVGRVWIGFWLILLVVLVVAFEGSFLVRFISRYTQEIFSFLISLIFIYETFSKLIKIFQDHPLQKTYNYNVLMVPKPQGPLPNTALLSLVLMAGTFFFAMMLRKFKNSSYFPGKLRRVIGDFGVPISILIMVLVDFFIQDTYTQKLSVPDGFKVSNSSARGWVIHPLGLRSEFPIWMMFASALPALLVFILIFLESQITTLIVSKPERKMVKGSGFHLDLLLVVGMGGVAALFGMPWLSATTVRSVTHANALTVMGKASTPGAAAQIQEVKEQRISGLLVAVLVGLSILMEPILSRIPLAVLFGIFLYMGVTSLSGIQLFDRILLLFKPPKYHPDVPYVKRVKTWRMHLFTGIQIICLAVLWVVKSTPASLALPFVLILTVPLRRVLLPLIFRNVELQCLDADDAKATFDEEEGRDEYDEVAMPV
T1 sequence 2: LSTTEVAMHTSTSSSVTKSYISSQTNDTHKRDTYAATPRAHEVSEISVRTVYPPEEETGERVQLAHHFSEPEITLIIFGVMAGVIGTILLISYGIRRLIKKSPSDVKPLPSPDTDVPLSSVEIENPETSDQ
Description: (§1) Recombinant proteins were radiolabeled with Na¹²⁵I (Perkin Elmer, Exton, Pa.) using pre-formulated iodination reagent (Pierce Iodination Reagent, Thermo Fisher Scientific, Carlsbad, Calif.) per the manufacturer's protocol. Radiochemical purity was verified by instant thin layer chromatography on silica and was typically >95%. Radiolabeled proteins were added to human RBCs at 0.02% hematocrit in PBS with 2% human AB serum. Binding was allowed to reach equilibrium over 4 hours at 37 degrees C. After binding, cell suspensions were rapidly washed at least four times with cold PBS. The resulting cell pellet was counted using a Perkin Elmer Wizard2 gamma counting system. Dissociation of the fusion proteins was assessed using RBCs saturated with radiolabeled proteins, washing unbound ligands, and placing in dilute suspensions prior to measurement of bound ligand at specified time points. Similar binding experiments were performed with fluorescently-labeled recombinant proteins and cells were analyzed by flow cytometry (Accuri C6, BD Biosciences, San Jose, Calif.). Fluorescently labeled proteins were produced by reaction with amine-reactive derivatives of fluorescent dyes AlexaFlour488 and AlexaFlour647 (typically 10- to 20-fold excess at pH 8) and purified using 10,000 MWCO centrifugal filter devices (EMD Milipore, Billerica, Mass.).

[3] = target: T1, Band 3 / glycophorin A (Wright b, Wrb …); experiment: direct binding of 125I-labelled protein to human RBCs, 4 h at 37 C
Description: as §1

| Binder | binding result [1] | koff [2] | Kd [3] |
| --- | --- | --- | --- |
| B1 | no binding |  |  |
| B2 |  | 2.9e-05 s⁻¹ | 21.3 nM |
